Patent US20180127480A1 (Stanford University, published 2018)

target: T1, SIRPα a1d1 expressed on yeast (human, UniProt P78324 31-149, limits assumed); assay: flow cytometry titration on yeast expressing SIRPα a1d1
T1 construct: domain: domain 1; also called SIRPα a1d1-expressing yeast
From the text: FIG. 6B Graph showing binding of different CD47 species to SIRPα a1d1-expressing yeast in titration experiments. […] FIG. 6C Graph showing binding to SIRPα a2d1-expressing yeast in titration experiments (CD47 species are the same as in FIG. 6B).
High affinity CD47 variants were modified to produce diagnostic agents. […] In the original high affinity CD47 variants isolated, the cysteine at position 15 (C15) had been changed to a G (C15G variants). To enable coupling of high affinity CD47 variants to a fluorescent moiety, position 15 was reverted to a Cysteine (C15) or the Phenylalanine (F) at position 14 was changed to a Cysteine (F14C). Binding of such reagents to SIRPα was tested. […] As shown in these figures, the high affinity CD47 reagents can detect SIRPα expression on cells, both engineered and non-engineered, much better than the wildtype molecule. Indeed, as show in FIG. 6D, these reagents can perform as well as anti-SIRPα antibody in such assays.

T1 sequence (P78324 31-149 limits assumed): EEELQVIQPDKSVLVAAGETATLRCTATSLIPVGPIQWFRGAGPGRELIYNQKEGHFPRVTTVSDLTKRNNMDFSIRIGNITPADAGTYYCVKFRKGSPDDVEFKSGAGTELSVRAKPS

| Binder | EC50 (read off the curve) [nM] |
| --- | --- |
| biotinylated high affinity CD47 variant N3612 C15G (designed binder, biotin on the biotin acceptor peptide tag (BirA ligase), An 8x histidine tag is probably also present (Ni-NTA purification)) WQPPLLFNKTKSVEFTFGNDTVVIPCFVTNMEAQNTTEVYVKWKFKGRDIYTFDGQANKSTVPTDFSSAKIEVSQLLKGDASLKMDKSDAVSHTGNYTCEVTELTREGETIIELKYRVVSGLNDIFEAQKIEWHE | ~3 |
| N3612 F14C coupled to Alexa Fluor 647 (designed binder, Alexa Fluor 647 maleimide on the cysteine at position 14 (F14C, mature CD47 numbering)) WQPPLLFNKTKSVEFTCGNDTVVIPCFVTNMEAQNTTEVYVKWKFKGRDIYTFDGQANKSTVPTDFSSAKIEVSQLLKGDASLKMDKSDAVSHTGNYTCEVTELTREGETIIELKYRVVSHHHHHHHH | ~5 |
| N3612 C15 coupled to Alexa Fluor 647 (designed binder, Alexa Fluor 647 (maleimide chemistry) on the cysteine at position 15 (mature CD47 numbering), The production of this form is not described separately) WQPPLLFNKTKSVEFTFCNDTVVIPCFVTNMEAQNTTEVYVKWKFKGRDIYTFDGQANKSTVPTDFSSAKIEVSQLLKGDASLKMDKSDAVSHTGNYTCEVTELTREGETIIELKYRVVSHHHHHHHH | ~5 |
